The chains are these.
B1: Hairpin Ribozyme (parent)
chain: GUCCUCUUUCACGUGCGCGUGAAAGAGAGAAGUGAACCAGAGAAACACACGUUGUGGUAUAUUACCUGGUA

In this data set the parent is B1. Nature of the data set: self-cleavage, relative activity (ratio to wild type); higher = more cleavage; co-transcriptional.
Take U20C U58C: the self-cleavage was determined as 0.893.
As for U20C U58A, the figure is 0.673.
In the case of U20G A64U, the self-cleavage was found to be 0.141.
As for U20G A64C, the figure is 0.184; as for U20A G21A, 0.79.
For U20A G21U, the self-cleavage was found to be 0.642.
Consider G21A A71U, for which the self-cleavage was 0.611.
With U20C G27A, the self-cleavage turned out to be 0.345.
For U20C G27C, the self-cleavage was found to be 0.169.
For the variant U20G C46U, the self-cleavage worked out at 0.0821.
As for U20C C66U, the self-cleavage was 0.486.
With U20C C66A, the self-cleavage was 0.309.
For the variant U20G U60C, the self-cleavage was 0.815.
As for U20G U60A, the self-cleavage is 0.775.
U20C U67G: the self-cleavage is 0.336.
For U20A A49C, the self-cleavage is 0.131.
Turning to U20A A49U, the self-cleavage amounted to 0.272.
Take U20G A23U: the self-cleavage came out at 0.712.
Take U20G A23G: the self-cleavage turned out to be 0.98.
U20G G68C: the self-cleavage was determined as 0.162.
On to G21A G54C, for which the self-cleavage is 0.293.
G21A G54A: the self-cleavage amounted to 0.491.
As for U20A U67C, the self-cleavage worked out at 0.237.
Then U20A A71C, with 1.15; and U20A A71U, with 0.735; and U20G G25U, with 0.64.
On to U20A U60C, for which the self-cleavage stood at 0.995.
As to U20G A31G, the self-cleavage was determined as 0.581.
With G21A A36G, the self-cleavage is 0.959.
For the variant U20G C48G, the self-cleavage was found to be 0.179.
In the case of U20C A35U, the self-cleavage amounted to 0.82.
For the variant U20C A35C, the self-cleavage came out at 0.785.
As for G21A A35C, the self-cleavage came to 0.788.
Then G21A G29U, with 0.186; and U20A G29A, with 0.101; and U20C A24G, with 0.758.
Then G21A A59G, with 0.125; and U20G A26C, with 0.483.
Take U20G A26G: the self-cleavage was determined as 0.788.
Regarding U20G G27U, the self-cleavage turned out to be 0.154.
Then U20A A45C, with 0.109; and U20A A45G, with 0.183; and U20C A44C, with 0.155.
G21A G57A: the self-cleavage was determined as 0.192.
Then U20G A41C, with 1.13.
As for U20G A41U, the figure is 1.3; as for U20G C50U, 0.42; as for U20G C50A, 0.246.
On to G21A C50A, for which the self-cleavage was found to be 0.306.
Take G21A G40U: the self-cleavage worked out at 0.151.
As for U20G G32A, the figure is 0.124.
For U20C C48U, the self-cleavage amounted to 0.175.
As for U20C C48G, the self-cleavage turned out to be 0.104.
For U20A G56C, the self-cleavage was found to be 0.145.
As for U20A G56A, the self-cleavage worked out at 0.108.
On to U20G G56C, for which the self-cleavage was 0.312.
Regarding G21A C48U, the self-cleavage amounted to 0.0963.
With G21A C48A, the self-cleavage was determined as 0.19.
As for U20G A22G, the self-cleavage turned out to be 0.959.
As for U20G A22U, the self-cleavage came to 0.868.
U20C G56A: the self-cleavage amounted to 0.255.
Regarding U20A G32A, the self-cleavage amounted to 0.18.
Then U20C G34C, with 1.45; and U20G G54C, with 0.321.
Take U20A U53A: the self-cleavage was 0.758.
Regarding U20G G57U, the self-cleavage came to 0.212.
Regarding U20G A59G, the self-cleavage was 0.167.
Take U20A U33C: the self-cleavage amounted to 0.186.
G21A A64C: the self-cleavage came out at 0.207.
With U20C C46U, the self-cleavage was determined as 0.103.
As for U20C C46A, the figure is 0.237; as for U20C G32U, 0.157; as for U20G A45U, 0.117.
As for U20A A31C, the self-cleavage amounted to 0.21.
Take U20A U62A: the self-cleavage was found to be 0.239.
For the variant U20C A41U, the self-cleavage was 1.36.
For the variant U20C A41G, the self-cleavage was 0.886.
Consider U20G A35C, for which the self-cleavage was 0.976.
With G21A U33C, the self-cleavage stood at 0.116.
As for U20C A22G, the self-cleavage worked out at 0.877.
As for G21A G68C, the self-cleavage was 0.15.
On to U20C G57C, for which the self-cleavage was 0.198.
As to U20C A23C, the self-cleavage was 0.648.
As for U20C A23U, the figure is 0.667; as for U20A G68U, 0.297.
Regarding U20A G68A, the self-cleavage came to 0.332.
On to U20C U33C, for which the self-cleavage was 0.13.
As to U20C A39C, the self-cleavage turned out to be 0.562.
As for U20C U70G, the self-cleavage is 0.909.
With G21A A26C, the self-cleavage stood at 0.0544.
In the case of U20A G54A, the self-cleavage came to 0.546.
As for U20A G25U, the figure is 0.529; as for U20A G25A, 0.453.
U20C G25A: the self-cleavage turned out to be 0.288.
With U20C G51C, the self-cleavage amounted to 0.54.
In the case of U20C G51U, the self-cleavage is 1.07.
Then U20C A45U, with 0.076; and U20G C65A, with 0.895.
As for U20G C65G, the self-cleavage turned out to be 0.177.
Then U20A A35G, with 0.815; and U20A A35C, with 0.967.
As for U20G G42A, the figure is 0.266.
Consider U20C C65G, for which the self-cleavage turned out to be 0.472.
As for U20C U62C, the self-cleavage was 0.462.
Regarding U20A A41G, the self-cleavage came to 0.681.
Turning to U20C A49U, the self-cleavage is 0.148.
For G21A G27U, the self-cleavage came out at 0.227.
On to U20C G29U, for which the self-cleavage turned out to be 0.235.
Regarding U20A U52G, the self-cleavage turned out to be 0.685.
As to U20A G40C, the self-cleavage came out at 0.0677.
With U20A G51C, the self-cleavage was found to be 0.846.
Turning to U20G A24C, the self-cleavage was 0.789.
Consider U20C A47U, for which the self-cleavage is 0.161.
Then U20A A43U, with 0.0666; and U20A A43G, with 0.348.
Regarding U20G U58A, the self-cleavage was 0.501.
As to U20G A30C, the self-cleavage worked out at 0.194.
Regarding G21A C66G, the self-cleavage worked out at 0.156.
Then U20C C38G, with 0.154; and U20C C38U, with 0.415.
Take U20G A36U: the self-cleavage amounted to 0.749.
U20G A36C: the self-cleavage was 0.771.
On to G21A A49U, for which the self-cleavage was 0.234.
As for U20G U70C, the figure is 0.783; as for U20G U70A, 1.07; as for G21A A43G, 0.127.
For the variant U20G G34U, the self-cleavage was 1.5.
As for U20G U53C, the figure is 0.633; as for U20G U53A, 0.927.
For the variant U20A A36U, the self-cleavage is 0.497.
Consider U20A A64G, for which the self-cleavage is 0.562.
Regarding G21A A41U, the self-cleavage was 1.07.
As to U20A C50A, the self-cleavage was found to be 0.423.
With U20A C50U, the self-cleavage came to 0.5.
Turning to G21A A28U, the self-cleavage is 0.719.
As to U20C U55A, the self-cleavage worked out at 0.407.
As for U20C A61C, the figure is 0.138; as for U20C A61G, 0.0608; as for U20C C37A, 0.426.
Take U20C C37G: the self-cleavage came out at 0.342.
Turning to U20C A26C, the self-cleavage came to 0.329.
For U20C G42A, the self-cleavage was 0.19.
In the case of U20G U55A, the self-cleavage came to 0.147.
As for U20G U55G, the figure is 0.293; as for U20G U55C, 0.268.
Regarding G21A C38U, the self-cleavage is 0.466.
Regarding U20A G57A, the self-cleavage worked out at 0.204.
Take U20A G57C: the self-cleavage came out at 0.215.
With U20C A43C, the self-cleavage is 0.0285.
As to U20G A39G, the self-cleavage is 0.27.
Regarding G21A G32C, the self-cleavage was 0.146.
Take G21A A22G: the self-cleavage turned out to be 0.728.
As for U20C A30U, the figure is 0.0821; as for U20A A47U, 0.274.
As to U20A A47G, the self-cleavage came out at 0.185.
As for U20A A30C, the self-cleavage was found to be 0.253.
Then U20A A28U, with 0.497.
As for U20G A71G, the self-cleavage was 0.971.
For the variant U20G A71U, the self-cleavage amounted to 0.605.
As to G21A G34U, the self-cleavage turned out to be 1.08.
Then U20C A59C, with 0.185; and U20A G34C, with 1.26.
In the case of U20A G34A, the self-cleavage is 0.993.
As to G21A A47C, the self-cleavage worked out at 0.402.
Then G21A A47G, with 0.2.
With U20A C37G, the self-cleavage is 0.375.
In the case of U20A C66A, the self-cleavage is 0.231.

The values above are taken from the RNAGym collection of RNA variant scans (doi:10.7554/elife.80360).
